Data as given in patent US20230293738A1 (Y MABS THERAPEUTICS, published 2023).
Where “and” joins values, the source holds several entries; their conditions need not be identical. Equal values may be shown once. Read-outs that look alike come from different tables or passages of the source.

What was measured:
[1] = target: recombinant human B7-H3 (Example 3) (human) (UniProt Q5ZPR3); assay: SPR, triplicate
recombinant monkey B7-H3 = target: T1, recombinant monkey B7-H3 (monkey); assay: SPR, triplicate
T1 chain: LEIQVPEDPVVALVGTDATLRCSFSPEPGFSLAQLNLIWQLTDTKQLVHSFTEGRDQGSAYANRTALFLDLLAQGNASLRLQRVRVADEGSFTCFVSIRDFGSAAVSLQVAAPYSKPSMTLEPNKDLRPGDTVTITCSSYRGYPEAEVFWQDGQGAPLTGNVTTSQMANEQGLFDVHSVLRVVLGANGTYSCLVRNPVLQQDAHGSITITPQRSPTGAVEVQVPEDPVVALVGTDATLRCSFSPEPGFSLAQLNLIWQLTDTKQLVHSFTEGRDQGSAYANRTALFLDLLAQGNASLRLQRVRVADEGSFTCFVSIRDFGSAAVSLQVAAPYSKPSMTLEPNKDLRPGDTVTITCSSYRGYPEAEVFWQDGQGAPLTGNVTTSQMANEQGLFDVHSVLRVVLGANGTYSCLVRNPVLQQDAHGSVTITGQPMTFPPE

[2] = target: T2, human 2Ig-B7H3 (B7H3-2Ig-His) (human, UniProt Q5ZPR3 29-466); assay: SPR, Biacore T200, 2Ig-B7H3-His on CM5 chip, 1:1 fit
T2 construct: Recombinant His-tagged protein immobilised on a CM5 chip; also called 21g-B7H3; B7H3-21g-His; not shown: His tag
T2 sequence: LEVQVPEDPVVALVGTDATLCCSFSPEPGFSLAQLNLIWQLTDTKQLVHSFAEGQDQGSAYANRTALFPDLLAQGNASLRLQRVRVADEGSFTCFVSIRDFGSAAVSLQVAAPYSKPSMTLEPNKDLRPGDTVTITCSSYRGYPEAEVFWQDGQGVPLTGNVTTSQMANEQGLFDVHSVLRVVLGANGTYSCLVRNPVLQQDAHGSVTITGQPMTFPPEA
Description: (§1) Both human B7H3 41g and 21g proteins were dissolved in PBS (Phosphate-Buffered Saline) to make 0.1 mg/ml stock solution and stored in −80° C. B7-H3 proteins were immobilized onto the CM5 sensor chip using Amine Coupling Kit. Both proteins were diluted to 10 ug/ml with 10 mM Sodium acetate, pH 5.0. […] A blank immobilized surface was used as a control
(§2) Binding Assays: [0143] 1. Antibodies were diluted in HBS-EP buffer (10 mM HEPES, 150 mM NaCl, 3 mM EDTA, 0.05% Surfactant P20, pH 7.4) at varying concentrations (25-50-100-200-400 nM) prior to analysis. […] 2. Samples (60 ul) were injected over the sensor surface at a flow rate of 30 ul/min over 2 min. [0145] 3. Following completion of the association phase, dissociation was monitored in HBS-EP buffer for 10 min at the same flow rate. […] 4. At the end of each cycle, the surface was regenerated using 10 mM NaOH at a flow rate of 50 ul/min over 2×15 sec.
(§3) The data were analyzed by the 1:1 fitting model and default parameter setting for the rate constants using the Biacore T200 Evaluation Software, and the apparent association on rate constant (kon, ka), dissociation off rate constant (koff, kd) and equilibrium dissociation constant (KD=kd/ka) were calculated.

[3] = target: T3, human 4Ig-B7H3 (B7H3-4Ig-His) (human, UniProt Q5ZPR3 29-466); assay: SPR, Biacore T200, 4Ig-B7H3-His on CM5 chip, 1:1 fit
T3 construct: Recombinant His-tagged protein immobilised on a CM5 chip; also called 41g-B7H3; human 4Ig-B7-H3 (dominant isoform); not shown: His tag
T3 sequence: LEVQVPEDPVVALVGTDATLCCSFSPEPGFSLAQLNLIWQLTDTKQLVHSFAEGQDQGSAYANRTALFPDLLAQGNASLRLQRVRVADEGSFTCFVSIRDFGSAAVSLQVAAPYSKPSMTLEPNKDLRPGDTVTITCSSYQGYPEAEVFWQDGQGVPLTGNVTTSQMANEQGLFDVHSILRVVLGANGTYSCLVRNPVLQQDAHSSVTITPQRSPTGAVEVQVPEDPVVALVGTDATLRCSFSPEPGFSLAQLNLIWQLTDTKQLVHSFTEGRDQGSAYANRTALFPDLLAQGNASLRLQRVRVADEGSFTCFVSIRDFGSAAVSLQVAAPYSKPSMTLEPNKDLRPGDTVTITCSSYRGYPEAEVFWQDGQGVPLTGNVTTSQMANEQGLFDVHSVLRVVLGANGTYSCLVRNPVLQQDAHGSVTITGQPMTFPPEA
Description: as §1, §2

[4] = target: T3, human 4Ig-B7H3 (B7H3-4Ig-His); assay: as above; remark: listed apart in the source
Description: as §1, §3

[5] = target: T2, human 2Ig-B7H3 (B7H3-2Ig-His); assay: SPR, Biacore T200, 2Ig-B7H3-His on CM5 chip, 1:1 fit; * beyond fitting limits
Description: as §1, §2, §3

[6] = target: T2, human 2Ig-B7H3 (B7H3-2Ig-His); assay: as above; remark: listed apart in the source
Description: as §1, §2

[7] = target: T2, human 2Ig-B7H3 (B7H3-2Ig-His); assay: SPR, Biacore T200, 2Ig-B7H3-His on CM5 chip, 1:1 fit; unconjugated 8H9, lot S219, Table 5 run
Description: as §1, §2

[8] = target: T2, human 2Ig-B7H3 (B7H3-2Ig-His); assay: SPR, Biacore T200, 2Ig-B7H3-His on CM5 chip, 1:1 fit; * beyond fitting limits; unconjugated 8H9, lot S219, Table 5 run

B1: 8H9 antibody comprising a light chain according to SEQ ID No.: 2 and heavy chain according to SEQ ID No.: 1 (antibody, mouse IgG1, kappa, V domains shown)
VH: QVQLQQSGAELVKPGASVKLSCKASGYTFTNYDINWVRQRPEQGLEWIGWIFPGDGSTQYNEKFKGKATLTTDTSSSTAYMQLSRLTSEDSAVYFCARQTTATWFAYWGQGTLVTVSA
VL: DIVMTQSPATLSVTPGDRVSLSCRASQSISDYLHWYQQKSHESPRLLIKYASQSISGIPSRFSGSGSGSDFTLSINSVEPEDVGVYYCQNGHSFPLTFGAGTKLELKR
notes: Unconjugated mouse IgG1 mAb; also called m8H9; murine 8H9
B1 showed a Kd [1] of 0.0011 nM, a koff [1] of 1e-05 s⁻¹ and a kon [1] of 8.9e+06 M⁻¹ s⁻¹. For the same binder, the Kd (recombinant monkey B7-H3) was 0.0016 nM, the koff (recombinant monkey B7-H3) was 1e-05 s⁻¹ and the kon (recombinant monkey B7-H3) was 6.5e+06 M⁻¹ s⁻¹. For the same binder, the Kd [2] was 0.0123 nM, the kon [2] was 43400 M⁻¹ s⁻¹ and 46200 M⁻¹ s⁻¹ and 40900 M⁻¹ s⁻¹ and the Kd [3] was 4.07 nM and 3.78 nM and 3.69 nM. The koff [3] was 0.000102 s⁻¹ and 0.000101 s⁻¹ and 9.48e-05 s⁻¹, the kon [3] was 25200 M⁻¹ s⁻¹ and 26700 M⁻¹ s⁻¹ and 25700 M⁻¹ s⁻¹ and the “t ½” value [3] was 1.88 h and 1.91 h and 2.03 h. For the same binder, the Kd [4] was 3.18 nM and 3.13 nM, the koff [4] was 9.11e-05 s⁻¹ and 8.73e-05 s⁻¹ and the kon [4] was 28600 M⁻¹ s⁻¹ and 27900 M⁻¹ s⁻¹. The “t ½” value [4] was 2.11 h and 2.21 h, the koff [5] was 2.38e-07 s⁻¹ and 5.68e-07 s⁻¹ and the koff [6] was 1.1e-07 s⁻¹. For the same binder, the Kd [7] was under 0.212 nM and the koff [8] was under 1e-05 s⁻¹.
